Here are results for two molecules from article PMC6986764, “RNA binding protein FXR1-miR301a-3p axis contributes to p21WAF1 degradation in oral cancer”.

In the data set the target is FXR1 (rFXR1) (human, UniProt P51114 1-621). In words: EMSA; 1 ug E. coli tRNA, 1.5 mM EDTA; EMSA: 0.5 pmol 32P-miRNA in 20 ul, 20 mM Na-HEPES pH 7.0, 150 mM NaCl, 0.75 mM DTT, 1.5 mM EDTA, 10% glycerol, 1 ug E. coli tRNA, 37 C 30 min; 12% native PAGE. The settings on record: protein: recombinant, His-tag (pET28a), thrombin-cleaved in final dialysis, single strand.
FXR1 (rFXR1), sequence (P51114 whole entry): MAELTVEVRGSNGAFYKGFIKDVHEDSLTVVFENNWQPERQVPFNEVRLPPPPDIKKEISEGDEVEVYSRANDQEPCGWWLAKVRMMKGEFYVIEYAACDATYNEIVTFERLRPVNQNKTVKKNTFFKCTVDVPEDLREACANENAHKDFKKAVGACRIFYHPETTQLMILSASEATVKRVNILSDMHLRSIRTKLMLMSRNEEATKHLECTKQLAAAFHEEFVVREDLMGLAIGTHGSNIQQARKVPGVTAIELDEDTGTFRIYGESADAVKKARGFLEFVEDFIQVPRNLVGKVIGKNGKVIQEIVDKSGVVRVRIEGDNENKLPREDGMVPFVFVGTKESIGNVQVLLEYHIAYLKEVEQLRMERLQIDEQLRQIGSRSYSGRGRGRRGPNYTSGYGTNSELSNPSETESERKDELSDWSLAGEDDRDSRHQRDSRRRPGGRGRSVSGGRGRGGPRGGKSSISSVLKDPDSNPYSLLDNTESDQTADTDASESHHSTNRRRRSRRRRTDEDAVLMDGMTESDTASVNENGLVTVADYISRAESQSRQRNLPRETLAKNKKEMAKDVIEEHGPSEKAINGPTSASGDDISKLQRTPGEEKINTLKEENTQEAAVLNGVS

Regarding UUCCCUUUGUCAUCCUAUGCCU (ssRNA) [miR204-5p], the binding result (label: 32P) is listed as “no binding”.
For the molecule CAGUGCAAUAGUAUUGUCAAAGC (ssRNA) [miR301a-3p], the binding result (label: 5'-32P) was “binds”.
